Test results as given in US20240174748A1 (INNATE PHARMA, published 2024).
Where a chain is given by its changes, count along the chain named. Blank lines part the entries; values can stand above or below the binder they belong to.

Biological target: T1, Cynomolgus NKp46 (Macaca fascicularis (cynomolgus), UniProt Q95JB9 22-254)
T1 construct: also called cynomologus NKp46; macaca fascicularis NKp46
Assay: not stated (human IgG1)

T1 sequence (Q95JB9 22-254): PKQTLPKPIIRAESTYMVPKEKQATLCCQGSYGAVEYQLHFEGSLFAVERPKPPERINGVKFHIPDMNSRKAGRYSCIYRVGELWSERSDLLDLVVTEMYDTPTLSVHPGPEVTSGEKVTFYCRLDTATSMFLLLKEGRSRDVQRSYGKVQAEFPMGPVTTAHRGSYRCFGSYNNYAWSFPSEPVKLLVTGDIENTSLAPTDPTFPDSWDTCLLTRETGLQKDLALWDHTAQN

fold lower affinity for cynomolgus NKp46 than for human NKp46: 10 fold
B1: NKp46-4 H2L2 (antibody, human IgG1, V domains shown)
VH: QVQLVQSGAEVKKPGASVKVSCKASGYTFTSFTMHWVRQAPGQGLEWIGYINPSSGYTEYNQKFKDRTTITADKSTSTAYMELSSLRSEDTAVYYCVRGSSRGFDYWGQGTLVTVSS
VL: DIQMTQSPSSLSASVGDRVTITCRASENIYSNLAWFQQKPGKAPKLLVYAATNLADGVPSRFSGSGSGTDYTLTISSLQPEDFATYYCQHFWGTPRTFGGGTKVEIK
notes: Produced as human IgG1

fold lower affinity for cynomolgus NKp46 than for human NKp46: 10 fold
B2: NKp46-4 H3L2 (antibody, human IgG1, V domains shown)
VH: B1 VH with I70L
VL: B1 VL
notes: Produced as human IgG1
